B2: first Sam domain of Odin (Odin-Sam1) (domain or fragment, human, UniProt Q92625 691-770, looked up)
chain: ISGLRTLEQSVGEWLESIGLQQYESKLLLNGFDDVHFLGSNVMEEQDLRDIGISDPQHRRKLLQAARSLPKVKALGYDGN
B3: Arap3-Sam wild-type (domain or fragment, human, UniProt Q8WWN8 1-80, looked up)
chain: MAAPQDLDIAVWLATVHLEQYADTFRRHGLATAGAARGLGHEELKQLGISATGHRKRILRLLQTGTEEGSLDPKSDSAME

The target in assay [1] is B2. In words: NMR titration.
The assay “Arap3-Sam wild-type” has as its target B3. Description: SPR. In general terms: Surface plasmon resonance follows binding to a sensor surface in real time, without labels.
The target in assay [2] is B2. In words: ITC. For orientation: Isothermal titration calorimetry measures the heat released or taken up as one component is titrated into another.

B1: Sam domain of the EphA2 receptor (EphA2-Sam) (domain or fragment, human, UniProt P29317 901-976, looked up)
chain: SEGVPFRTVSEWLESIKMQQYTEHFMAAGYTAIEKVVQMTNDDIKRIGVRLPGHQKRIAYSLLGLKDQVNTVGIPI
On to B1, for which the binding result in assay [1] is “binds”. Turning to B2, the affinity in the assay with Arap3-Sam wild-type, expressed as Kd, was 2900 ± 400 nM.

For the molecule B3, binding in assay [2] was put at a Kd of 370 ± 80 nM.
